The values that follow come from publication PMC6797743, “Dual self-assembly of supramolecular peptide nanotubes to provide stabilisation in water” (Nature Communications, 2019).

[ ]: non-standard residue; d: D form. pDMA = poly(N,N-dimethylacrylamide) hydrophilic homopolymer (2)

For orientation: stoichiometry N means the number of molecules, sites or subunits per partner or assembly.

The data set concerns the molecule itself. The data set is described as follows: static light scattering (SLS); conjugates in water, 0.1-3.0 mg mL^-1, filtered (0.45 um PTFE); before and after 1 h of sonication (1 h and 3 days of standing); Nagg = molecular weight of the aggregate / molecular weight of the unimer; length = Nagg x 0.5 nm.

B1: CP-(pDMA)2 (4), cyclic peptide-hydrophilic polymer conjugate (peptide)
peptide: cyclo([dL]K(pDMA)[dL]W[dL]K(pDMA)[dL]W)
notes: cyclo(D-Leu-Lys-D-Leu-Trp)2, printed in three-letter code; designed cyclic octapeptide of alternating D and L residues (cyclic peptide 10); the same CP as in m1; also called control conjugate; fully hydrophilic control conjugate
Regarding B1, the “stoichiometry N” value was 25.
